Assay results from the supplement of paper PMC9170038.

Tested on: K4 kissing-loop RNA reporter
Experiment: apparent KD of K4 kissing-loop reporter; higher = weaker reporter binding
Settings: Eterna round: R107
Description: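 RNA-MaP round R107: designed RNA switches with theophylline, tryptophan, arginine or FMN aptamers are transcribed on-chip within common flanks. They are titrated with a labelled K4 kissing-loop RNA reporter in RNA-MaP buffer (100 mM Tris pH 7.5, 80 mM KCl, 4 mM MgCl2), without ligand or with the indicated ligand. Median apparent KD per design.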

[1] = input ligand: theophylline 20 uM
[2] = input ligand: tryptophan 2.4 mM
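Also: bound reporter read as fluorescence of individual clusters on recovered sequencing chips by microscopy, with normalized cluster intensities fitted with a binding model.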

Sequence | apparent KD of K4 kissing-loop reporter (input ligand: FMN 200 uM) [nM] | apparent KD of K4 kissing-loop reporter (input ligand: arginine 13.2 mM) [nM] | apparent KD of K4 kissing-loop reporter (input ligand: none) [nM] | apparent KD of K4 kissing-loop reporter [1] [nM] | apparent KD of K4 kissing-loop reporter [2] [nM]
AGGAUCACGUCAGUGAUGUUGACAAGAGAUACCAGAGACGAAAGUCUCCCUUGGCAGCUCACUGUGAUCCGUGACAAAGGUCACA [Omei KL hio A SS C v1] | 146 | 63.2 | 98.3 | 154 | 76
AAGCCGGUUGCGGCCGCCACUUUUGCGGACCCGGUGCAGUGAUGUUGCGCAUCGCGGGUUGCUUAAAGGACCGGGCACCUCUAAC [theeternabot_sameState_KL_Trp_B_7] | 418 | 359 | 401 | 363 | 327
AUUUAAUUAACUGAUACCAGACUUUUUGUUUUGUUUAUUACUAGUGAUGUUAGUGUUUCUGUCCCUUGGCAGCAGUAUCUACUUA [JR_ExcTheophyB_Sub015] | 134 | 202 | 131 | 239 | 122
UGUCAUUGGUCGGCCGCCACUUCGUGUGGAGUGAUGUUUUGUAGAUUGUGUUGAAAGGUAUGGUGAAGGACCGGGACCGAUGACU [FiskerMod 21 - Jieux - Same State - Tryptophan B] | 1100 | 368 | 1090 | 242 | 997
UUAUUAUUCAGUGAUGUUGAAUUUAUUUCAGAGGAUAUGCAUAAAUGCAGAAGGCUGUAAUACUAUACUUUAAUAAAUUAAAUUU [JR_SSFMNA_Sub018] | 242 | 250 | 248 | 262 | 203
AACGCUGCCUGAGGAUAUAGAAACGAGUGAUGUUCGUGGAACGAGACCAGUGAUGUUGGCCUAUUUCUAGAAGGCAGGCAACCGC [Exclusion FMN B GF 1] | 155 | 121 | 148 | 123 | 125
GCAUCCGAUGCAGGAUAUAGAUGAACGAGUGAUGUUUGGAAUUUAUGUCCAAAGCCUACGAUCAAACUAGAAGGGCAUCGGAUGC | 334 | 266 | 161 | 167 | 192
UGGAGUUGACGAAAAGUCAACUCCCGAGAAGGAGCGGACGAAAGUCCAGGUAGGUCGCUCACUACCAGUGAUGUUGGUACUUAAA | 138 | 220 | 181 | 213 | 138
GAUAUAGUGAUGUUAUAUACUGAUAGACAACGAGGACCGGUACGGCCGCCACUCGAGAGGGUGAAAAUGAUGAUAAAAUAAUAAU [#01 K4 Tryptophan A Exclusion] | 341 | 283 | 341 | 374 | 269
AUCUUGUUUGGAGGAUAUUCUUUAUUCGACAUAACCUUCUAUAAGGUGCAGUGAUGUUGCAAUAUAGGAGAAGGUCGAGUGAGAU [Exclusion FMN B GF 17] | 239 | 174 | 188 | 166 | 188
GGAUGGUAGGCGGCCGCCACUAAAAGUGAACACAUACAAGCCAGUGAUGUUGGUAUGAUGGACUAUAGGACCGGGCCUAGAUAGA [Exclusion - Tryptophan B (Freestyle 6)] | 468 | 410 | 522 | 454 | 466
AUGUCUGAUAGCAGUGAUGUUGCUUCAGAUACCAGACGAGAUCAUGUCCCUUGGCAGCUGACACGGCACGUGCUAGGUUAGAUGA [whbob_Ex_Theo_A_th71] | 117 | 94.4 | 118 | 102 | 102
UACAUAUCACUUUUUCUACAAUUAUUUAGUCAGGAUAUCGAUUAAACGAGAAGGGACAUUAUCAAGUGAUGUUUGAUAAUUCAAA [JR_Nu_SSFMNA_Sub028] | 156 | 129 | 118 | 159 | 124
UGAGGAGAAUAUGAUACCAGCAGAGAGAGAGAGGAAGUAUAGUGAUGUUAUAUGAGAUAAUGCCCUUGGCAGCAUAAGAAGAAGG [#19 K4 Theophylline B Same State] | 163 | 104 | 111 | 178 | 145
AGGUCCGAGCCCGGAAGGGCUCGGACCUGUUAGGAUAUGACGUUAUUCAGAAGGGAUGGGUGGAGUGAUGUUCCACCCGCAAGGG [#2 Same State - FMN A Attempt #9 (HarryS)] | 70 | 96.3 | 111 | 102 | 86.5
GCCAGAGCGCGAAGGAGCGCCGUGACAGGUUACUGCCUUGGGCAGUGAUGUUGCUCAAUCUGGCAGGUAGGUCGCGUGCUCUGGC | 179 | 185 | 215 | 202 | 168

Sequence | apparent KD of K4 kissing-loop reporter (input ligand: FMN 200 uM) [nM] | apparent KD of K4 kissing-loop reporter (input ligand: arginine 13.2 mM) [nM] | apparent KD of K4 kissing-loop reporter (input ligand: none) [nM] | apparent KD of K4 kissing-loop reporter [1] [nM] | apparent KD of K4 kissing-loop reporter [2] [nM]
AUUUUUUUAUCAGGAUAUUAGUGUUGGUUUGUUUUGUUAGUGAUGUUGAUAUUUGUUUUAUGUAUUUAAGAAGGGAUUUAGAUGU [viuupullin] | 270 | 243 | 270 | 371 | 194
CUCACAGUGAUGUUGUGGGCCGAGAGUGAUACCAGCCGUAUUUGUGGCCCUUGGCAGCGCAGAACCAGUGAUGUUGGUUACUUGG [Same State Theophylline A GF 23] | 229 | 286 | 271 | 277 | 238
AGGUACAAAAGUACCGCUAGAUCCACGGAAGGAGCGCCGGAAACGGCAGGUAGGUCGCCGGGCAGUGAUGUUGCCGGAUCUAGCA [Omei KL Arginine A SS A v4] | 161 | 155 | 231 | 240 | 198
AAACAUCACUGGGAGUGAUGUUCUCAGUGACGAGGACCGGUACGGCCGCCACUCGCGAGAGAUAUAAUUAAGUAAUGACAUCAUU [Excl Tryptophan A V6] | 260 | 267 | 274 | 341 | 327
AGUAGUCGACAAGGAUAUACUAGGAGAGACGUUUGCACAUAACCUGCCCUACGAAGUGAUGUUUCGGUAGAAGGUGUUGGGCUGU [theeternabot_exclusion_KL_FMN_B_34] | 96.5 | 67 | 87.6 | 82.9 | 71.5
CCGCUGUACUGCAAUAAGUGAUGUUUAUUGCAGGAUAUCUGGAAACAGAGAAGGGCAUGUACUCGACUUAGCCACUACAGCGGUU | 144 | 57.3 | 61.1 | 56.9 | 65.2
AAACAACGUGACGAUACCAGCUUACUCGGCAAGCCAGUGAUGUUGGUGAAAAGGAGUCAAAGCCCUUGGCAGCGUCGAAGGUUUG [Leteon] | 310 | 268 | 334 | 138 | 268
UUACUACCCAGUGAUGUUGGGUAGCGGCCACGAGGACCGGUACGGCCGCCACUCGAGGUUCGGGAGUGAUGUUCCUACUAUUUGG [Same state Tryptophan A GF 6] | 328 | 341 | 360 | 402 | 160
UUAGCUCUAUAGAGCAAGAGGUCAACUGAUACCAGAGGCUAUAGCCUCCCUUGGCAGCGGAACGAGUGAUGUUCGAGACCUCAUU [AK6 SS Theophylline A] | 1280 | 816 | 1560 | 750 | 1440
AAACAGCACUGGGAGUGAUGUUCUCAGUGACGAGGACCGGUACGGCCGCCACUCGCGAGAGAACUAGUCUAGACUUGACUGCAUA [Excl Tryptophan A V15] | 181 | 138 | 145 | 149 | 205
GGCAUCCAUGGACAUAGUGAUGUUAUGUGCCGAGGACCGGUACGGCCGCCACUCGACCAUGGAUGCCGCAAUCGGAAACGAUUGC | 1090 | 915 | 1610 | 888 | 115
GGGCCUAUUGAUGCUGGAGCAAUUCUGGAAGGAGCGCUCAAAGGAGCAGGUAGGUCGCCAGUAUGCAAGGGCAGUGAUGUUGCCC [Ersoarxe] | 238 | 164 | 233 | 145 | 189
GCAGUGAUGUUGCUGAUGUACAGUGGGAUACGAGGACCGGUACGGCCGCCACUCGUACAGAAUUUGUUAAUACAUCGAUAAGUGA [XV] | 377 | 360 | 526 | 436 | 522
UAAUCCUAGUGAUAAUAAUCAAGUGGUGGGCGAGGACCGGUACGGCCGCCACUCGAAUAUGCAGUGAUGUUGUAAUCCGGAUAAU [Exclusion - Tryptophan A (Freestyle 6)] | 667 | 926 | 919 | 894 | 594
UUCUGCAUCUCGGCCGCCACUCACUAGUGAUGUUAGUAAGGAGCGACUAGAAAAGUCCAGUUAAUGAGGACCGGGAGAAGCUCUU [Exclusion Tryptophan B GF 1] | 281 | 298 | 312 | 199 | 217
AGCAGUCAACUCGAAACCAUCGAAGAUGGUCGAGGACCGGUACGGCCGCCACUCGGAGUGAUGUUCCGAAGACUGCAAAAUAAAA [#SwitchBubble 14] | 283 | 299 | 307 | 328 | 477
